Measurements taken from patent US11046988B2, “Process for the modification of a glycoprotein using a β-(1,4)-N-acetylgalactosaminyl transferase or a mutant thereof” (Synaffix B.V., priority 2014, dated 2021).
Positions count from the first letter of the chain named. Names and notes keep the numbering of the source.

B1: DmGalNAcT: truncated Drosophila melanogaster β-(1,4)-GalNAcT, amino acids 47-403 of SEQ ID NO: 5 (SEQ ID NO: 9) (protein)
chain: HKYAHIYGNASSDGAGGSEASRLPASPLALSKDRERDQELNGGPNSTIRTVIATANFTSIPQDLTRFLLGTKKFLPPRQKSTSALLANCTDPDPRDGGPITPNTTLESLDVIEAELGPLLRPGGAFEPENCNAQHHVAIVVPFRDRYAHLLLFLRNIHPFLMKQRIAYRIFIVEQTNGKPFNRAAMMNIGYLEALKLYQWDCFIFHDVDLLPLDDRNLYNCPRQPRHMSVAIDTLNFRLPYRSIFGGVSAMTREHFQAVNGFSNSFFGWGGEDDDMSNRLKHANLFISRYPVNIARYKMLKHQKEKANPKRYENLQNGMSKIEQDGINSIKYSIYSIKQFPTFTWYLAELKNSERKS
modifications: DmGalNAcT (47-403)
B2: AsGalNAcT: truncated Ascaris suum β-(1,4)-GalNAcT, amino acids 30-383 of SEQ ID NO: 3 (SEQ ID NO: 7) (protein)
chain: DYSFWSPAFIISAPKTLTTLQPFSQSTSTNDLAVSALESVEFSMLDNSSILHASDNWTNDELVMRAQNENLQLCPMTPPALVGPIKVWMDAPSFAELERLYPFLEPGGHGMPTACRARHRVAIVVPYRDRESHLRTFLHNLHSLLTKQQLDYAIFVVEQTANETFNRAKLMNVGYAEAIRLYDWRCFIFHDVDLLPEDDRNLYSCPDEPRHMSVAVDKFNYKLPYGSIFGGISALTREQFEGINGFSNDYWGWGGEDDDLSTRVTLAGYKISRYPAEIARYKMIKHNSEKKNPVNRCRYKLMSATKSRWRNDGLSSLSYDLISLGRLPLYTHIKVDLLEKQSRRYLRTHGFPTC
modifications: AsGalNAcT (30-383)
B3: TnGalNAcT(wt): wild-type TnGalNAcT compared with the mutants; probably His6-TnGalNAcT(33-421), SEQ ID NO: 49, from E. coli (protein)
chain: MGSSHHHHHHSSGLVPRGSHMSPLRTYLYTPLYNATQPTLRNVERLAANWPKKIPSNYIEDSEEYSIKNISLSNHTTRASVVHPPSSITETASKLDKNMTIQDGAFAMISPTPLLITKLMDSIKSYVTTEDGVKKAEAVVTLPLCDSMPPDLGPITLNKTELELEWVEKKFPEVEWGGRYSPPNCTARHRVAIIVPYRDRQQHLAIFLNHMHPFLMKQQIEYGIFIVEQEGNKDFNRAKLMNVGFVESQKLVAEGWQCFVFHDIDLLPLDTRNLYSCPRQPRHMSASIDKLHFKLPYEDIFGGVSAMTLEQFTRVNGFSNKYWGWGGEDDDMSYRLKKINYHIARYKMSIARYAMLDHKKSTPNPKRYQLLSQTSKTFQKDGLSTLEYELVQVVQYHLYTHILVNIDERS
modifications: His6-TnGalNAcT(33-421)
B4: TnGalNAcT(W336V): T. ni GalNAcT mutant, tryptophan 336 to valine, SEQ ID NO: 52 (protein)
chain: B3 chain with W325V
modifications: His6-TnGalNAcT(33-421; W336V)
B5: TnGalNAcT(W336F): T. ni GalNAcT mutant, tryptophan 336 to phenylalanine, SEQ ID NO: 50 (protein)
chain: B3 chain with W325F
modifications: His6-TnGalNAcT(33-421; W336F)

System: trimmed trastuzumab (core GlcNAc(Fuc) / core GlcNAc, glycan of formula (1))
Experiment: Glycosyltransfer of sugar derivative to trimmed (Endo S deglycosylated) trastuzumab, MS analysis
Type: biochemical
Conditions: for major heavy chain product, F2-GalNAz transfer to core GlcNAc(Fuc)-substituted trastuzumab: UDP-F2-GalNAz 0.4 mM, GalNAcT 1 mg/mL, 10 mM MnCl2, pH 8.0, 16 hours, 30° C.; for cumulative conversions of the major and minor product, F2-GalNAz transfer: UDP-F2-GalNAz (18) 1 mM, enzyme 0.25 mg/mL
Method: Trimming of IgG glycans was performed using Endo S from Streptococcus pyogenes (commercially available from Genovis, Lund, Sweden). The IgG (10 mg/mL) was incubated with Endo S (40 U/mL) in 25 mM Tris pH 8.0 for approximately 16 hours at 37° C. The deglycosylated IgG was concentrated and washed with 10 mM MnCl2 and 25 mM Tris-HCl pH 8.0 using an Amicon Ultra-0.5, Ultracel-10 Membrane (Millipore).
Trastuzumab was subjected to the trimming protocol above. Analysis of the trimmed antibody was performed on a JEOL AccuToF equipped with an Agilent 1100 HPLC. Samples (2 μL) were reduced with DTT (2 μL) during 10 min and subsequently diluted with H2O (40 μL) prior to injection. […] The two peaks of heavy chain belonged to one major product (49496 Da, 90% of total heavy chain), resulting from core GlcNAc(Fuc) substituted trastuzumab, and a minor product (49351 Da, ±10% of total heavy chain), resulting from core GlcNac substituted trastuzumab. This is an example of a glycoprotein comprising a glycan according to formula (1).
A solution of 50 μg (modified) IgG, 1 M Tris-HCl pH 8.0, 1 mM EDTA and 30 mM DTT with a total volume of approximately 70 μL was incubated for 20 minutes at 37° C. to reduce the disulfide bridges allowing to analyze both light and heavy chain. If present, azide-functionalities are reduced to amines under these conditions. Reduced samples were washed trice with milliQ using an Amicon Ultra-0.5, Ultracel-10 Membrane (Millipore) and concentrated to 10 μM (modified) IgG. The reduced IgG was analyzed by electrospray ionization time-of-flight (ESI-TOF) on a JEOL AccuTOF. Deconvoluted spectra were obtained using Magtran software.
Enzymatic introduction of galactose derivative (e.g. azido-containing sugar) onto IgG was effected with a GalNAc-transferase or a mutant thereof. The deglycosylated IgG (prepared as described above, 10 mg/mL) was incubated with a modified UDP-galactose derivative (e.g. an azido-modified sugar-UDP derivative) (0.4 mM) and GalNAcT (1 mg/mL) in 10 mM MnCl2 and 25 mM Tris-HCl pH 8.0 for 16 hours at 30° C. The functionalized IgG (e.g. azido-functionalized IgG) was incubated with protein A agarose (40 μL per mg IgG) for 2 hours at 4° C. The protein A agarose was washed three times with PBS and the IgG was eluted with 100 mM glycine-HCl pH 2.7. The eluted IgG was neutralized with 1 M Tris-HCl pH 8.0 and concentrated and washed with PBS using an Amicon Ultra-0.5, Ultracel-10 Membrane (Millipore) to a concentration of 15-20 mg/mL.
Enzymatic introduction of galactose derivative (e.g. thio-containing sugar 21) onto IgG was effected with a GalNAc-transferase or a mutant thereof. The deglycosylated IgG (prepared as described above, 10 mg/mL) was incubated with a modified UDP-galactose derivative (e.g. an thio-modified sugar-UDP derivative) (2 mM) and GalNAcT (0.2 mg/mL) in 10 mM MnCl2 and 50 mM Tris-HCl pH 6.0 for 16 hours at 30° C. The functionalized IgG (e.g. thio-functionalized trastuzumab) was incubated with protein A agarose (40 μL per mg IgG) for 1 hours at rt. The protein A agarose was washed three times with TBS (pH 6.0) and the IgG was eluted with 100 mM glycine-HCl pH 2.5. The eluted IgG was neutralized with 1 M Tris-HCl pH 7.0 and concentrated and washed with 50 mM Tris-HCl pH 6.0 using an Amicon Ultra-0.5, Ultracel-10 Membrane (Millipore) to a concentration of 15-20 mg/mL.

Molecule	major heavy chain product, F2-GalNAz transfer to core GlcNAc(Fuc)-substituted trastuzumab	cumulative conversions of the major and minor product, F2-GalNAz transfer (overnight)	other results
B1	approximately 90 % of total heavy chain		
B2	approximately 90 % of total heavy chain		major product, GalNButN3 transfer to core GlcNAc(Fuc) substituted trastuzumab (UDP-GalNButN3 0.7 mM, AsGalNAcT(wt) 0.2 mg/mL, overnight): 50 % of total heavy chain; major product, GalNProSH transfer to core GlcNAc(Fuc) substituted trastuzumab (UDP-GalNProSH 2 mM, AsGalNAcT 0.2 mg/mL, overnight): 95 % of total heavy chain; major product, GalNPropN3 transfer to core GlcNAc(Fuc) substituted trastuzumab (UDP-GalNPropN3 0.7 mM, AsGalNAcT 0.2 mg/mL, overnight): 70 % of total heavy chain
B3		95%	cumulative conversions of the major and minor product, F2-GalNBzN3 transfer (UDP-F2-GalNBzN3 (24) 1 mM, enzyme 0.5 mg/mL, overnight): 14%
B4		27%	
B5		24%	
